Data reported in US20050256058.

What was measured:
[1] = target: T1, PhPr-Leu-AOrn-CH═CH-COOEt
T1 chain: LX

[2] = target: T2, Cbz-Ala-Ala-AAsn-CH═CH-CONHCH2CH2Ph
T2 chain: AAN

[3] = target: T3, Cbz-Ala-Ala-AAsn-CH═CH-COOEt
T3 chain: AAN

[4] = target: T4, Cbz-Ala-Ala-AAsn-CH═CH-CON(Bzl)2
T4 chain: AAN

[5] = target: T5, PhPr-Leu-ALys-CH═CH-COOEt
T5 chain: LK

[6] = target: T6, Cbz-Ala-Ala-AAsn-CH═CH-CO-indoline
T6 chain: AAN

[7] = target: T7, Cbz-Ala-Ala-AAsn-CH═CH-CON(CH3)Bzl
T7 chain: AAN

[8] = target: T8, Cbz-Ala-Ala-AAsn-CH═CH-CON(Bzl)-1-CH2-Napth
T8 chain: AAN

[9] = target: T9, Cbz-Ala-Ala-AAsn-CH═CH-CON(Bzl)-2-CH2-Napth
T9 chain: AAN

B1: calpain I from porcine erythrocytes (protein)
chain: MAEEVITPVYCTGVSAQVQKLRAKELGLGRHENAIKYLGQDYEQLRAHCLQSGSLFRDEAFPPVPQSLGFKELGPNSSKTYGVKWKRPTELFSNPQFIVDGATRTDICQGALGDCWLLAAIASLTLNDTLLHRVVPHGQSFQNGYAGIFHFQLWQFGEWVDVVVDDLLPTKDGKLVFVHSAQGNEFWSALLEKAYAKVNGSYEALSGGSTSEGFEDFTGGVTEWYELRKAPSDLYSIILKALERGSLLGCSIDISSVLDMEAVTFKKLVKGHAYSVTGAKQVNYQGQMVNLIRMRNPWGEVEWTGAWSDGSSEWNGVDPYQRDQLRVRMEDGEFWMSFRDFLREFTRLEICNLTPDALKSQRVRNWNTTLYEGTWRRGSTAGGCRNYPATFWVNPQFKIRLEETDDPEDDYGGRESGCSFVLALMQKHRRRERRFGRDMETIGFAVYEVPPELVGQPVHLKRDFFLANASRARSEQFINLREVSTRFRLPPGEYVVVPSTFEPNKEGDFVLRFFSEKKAGTQELDDQVQAILPDEQVLSEEEIDENFKALFRQLAGEDMEISVRELRTILNRIISKHKDLRTKGFSLESCRSMVNLMDRDGNGKLGLVEFNILWNRIRNYLSIFRKFDLDKSGSMSAYEMRMAIESAGFKLNKKLFELIITRYSEPDLAVDFDNFVCCLVRLETMFRFFKTLDTDLDGVVTFDLFKWLQLTMFA
- kobs/[I] [1]: NI
- kobs/[I] [2]: NI
- kobs/[I] [3]: NI
- kobs/[I] [4]: NI
- kobs/[I] [5]: NI
- kobs/[I] [6]: NI
- kobs/[I] [7]: NI

B2: Caspase-6 (protein)
chain: AFYKREMFDPAEKYKMDHRRRGIALIFNHERFFWHLTLPERRGTCADRDNLTRRFSDLGFEVKCFNDLKAEELLLKIHEVSTVSHADADCFVCVFLSHGEGNHIYAYDAKIEIQTLTGLFKGDKCHSLVGKPKIFIIQACRGNQHDVPVIPLDVVDNQTEKLDTNITEVDAASVYTLPAGADFLMCYSVAEGYYSHRETVNGSWYIQDLCEMLGKYGSSLEFTELLTLVNRKVSQRRVDFCKDPSAIGKKQVPCFASMLTKKLHFFPKSN
- kobs/[I] [1]: NI
- kobs/[I] [2]: NI
- kobs/[I] [3]: NI
- kobs/[I] [4]: NI
- kobs/[I] [5]: NI
- kobs/[I] [6]: NI
- kobs/[I] [7]: NI

B3: Caspase-8 (protein)
chain: SESQTLDKVYQMKSKPRGYCLIINNHNFAKAREKVPKLHSIRDRNGTHLDAGALTTTFEELHFEIKPHDDCTVEQIYEILKIYQLMDHSNMDCFICCILSHGDKGIIYGTDGQEAPIYELTSQFTGLKCPSLAGKPKVFFIQACQGDNYQKGIPVETDSEEQPYLEMDLSSPQTRYIPDEADFLLGMATVNNCVSYRNPAEGTWYIQSLCQSLRERCPRGDDILTILTEVNYEVSNKDDKKNMGKQMPQPTFTLRKKLVFPSD
- kobs/[I] [1]: NI
- kobs/[I] [2]: NI
- kobs/[I] [3]: NI
- kobs/[I] [4]: NI
- kobs/[I] [5]: NI
- kobs/[I] [6]: NI
- kobs/[I] [7]: NI

B4: Caspase-3 (protein)
chain: SGISLDNSYKMDYPEMGLCIIINNKNFHKSTGMTSRSGTDVDAANLRETFRNLKYEVRNKNDLTREEIVELMRDVSKEDHSKRSSFVCVLLSHGEEGIIFGTNGPVDLKKITNFFRGDRCRSLTGKPKLFIIQACRGTELDCGIETDSGVDDDMACHKIPVEADFLYAYSTAPGYYSWRNSKDGSWFIQSLCAMLKQYADKLEFMHILTRVNRKVATEFESFSFDATFHAKKQIPCIVSMLTKELYFYH
- kobs/[I] [1]: NI
- kobs/[I] [2]: NI
- kobs/[I] [3]: NI
- kobs/[I] [4]: NI
- kobs/[I] [5]: NI
- kobs/[I] [6]: NI
- kobs/[I] [7]: NI

B5: schistosome legumain SmAE (Schistosoma mansoni asparaginyl endopeptidase) (protein)
chain: VSDNNKWAVLVAGSNGYPNYRHQADVCHAYHVLRSKGIKPEHIITMMYDDIAYNLMNPFPGKLFNDYNHKDWYEGVVIDYRGKNVNSKTFLKVLKGDKSAGGKVLKSGKNDDVFIYFTDHGAPGLIAFPDDELYAKEFMSTLKYLHSHKRYSKLVIYIEANESGSMFQQILPSNLSIYATTAANSTECSYSTFCGDPTITTCLADLYSYNWIVDSQTHHLTQRTLDQQYKEVKRETDLSHVQRYGDTRMGKLYVSEFQGS
- kobs/[I] [3]: 17400 M⁻¹ s⁻¹
- kobs/[I] [4]: 5800 M⁻¹ s⁻¹
- kobs/[I] [8]: 6180 M⁻¹ s⁻¹
- kobs/[I] [9]: 6100 M⁻¹ s⁻¹

B6: Papain (protein)
chain: IPEYVDWRQKGAVTPVKNQGSCGSCWAFSAVVTIEGIIKIRTGNLNEYSEQELLDCDRRSYGCNGGYPWSALQLVAQYGIHYRNTYPYEGVQRYCRSREKGPYAAKTDGVRQVQPYNEGALLYSIANQPVSVVLEAAGKDFQLYRGGIFVGPCGNKVDHAVAAVGYGPNYILIKNSWGTGWGENGYIRIKRGTGNSYGVCGLYTSSFYPVKN
- kobs/[I] [1]: NI
- kobs/[I] [2]: 12 M⁻¹ s⁻¹
- kobs/[I] [3]: NI
- kobs/[I] [4]: 1 M⁻¹ s⁻¹
- kobs/[I] [5]: NI
- kobs/[I] [6]: NI
- kobs/[I] [7]: NI
